Substitutions are numbered along the chain they refer to.

From paper PMC8266576, “TnpAREP and REP sequences dissemination in bacterial genomes: REP recognition determinants” come the findings set out here.

The target of the data set is T1, TnpAREP Ec (TnpAEc-His6) (Escherichia coli, UniProt Q47152 1-165).
T1 sequence: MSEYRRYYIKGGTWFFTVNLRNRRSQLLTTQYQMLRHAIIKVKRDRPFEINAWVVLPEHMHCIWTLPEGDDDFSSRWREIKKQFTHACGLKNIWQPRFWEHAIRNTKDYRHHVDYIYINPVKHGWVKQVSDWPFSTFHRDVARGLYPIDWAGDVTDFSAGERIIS
Kind of data set: EMSA; 2 and 4 uM protein, no divalent metal; EMSA: 12.5 mM Tris pH 7.5, 120 mM NaCl, 1 mM DTT, 20 ug/ml BSA, 0.5 ug poly-dIdC, 7% glycerol, no divalent metal; 0.02 uM labelled + 0.5 uM unlabelled oligonucleotide, 45 min 37 C (standard reaction); 8% native gel (TAE, 7% glycerol) at 4 C. The note with it: protein: recombinant, tags: His6 (C-terminal by name), chain copies: 2, label: 5'-32P.

B1: B268i (61) wt y REPEc (structured_DNA)
DNA: GTAGGACGGATAAGGCGTTTACGCCGCATCCGGCAGTTGTACGCAGGTGCCTGATGCGACG
Consider B1, for which the binding result (hairpin with bulge) is recorded as “binds”.

B2: B268i (61) GTGG (structured_DNA)
DNA: B1 DNA with A3G
B2: the binding result (hairpin with bulge) was “no binding”.

B3: B2689 mut loop (complement of loop) (structured_DNA)
DNA: B1 DNA with T19A, T20A
Consider B3, for which the binding result (hairpin with bulge) is on record as “binds”.

B4: B268i (61) GTAC (structured_DNA)
DNA: B1 DNA with G4C
For the molecule B4, the binding result (hairpin with bulge) was “no binding”.
As to GTAGGACGGATAAGCATCCGGCAGTTGTACGCAGGTGCCTGATGCGACG (structured_DNA) [B2688 del upper stem and loop], the binding result is “no binding”.
